Laboratory results taken from patent publication US6887705B1, “Tyrosine phosphorylated cleavage furrow-associated proteins (PSTPIPs)” (Genentech, Inc., priority 1997, dated 2005).

T1: PST PIP missing 50 amino acids from the N-terminus (delta 50), C-terminal FLAG (murine, UniProt P97814 51-415)
T1 construct: The 5' primer (N-coil.2, Glu51) carries ATGATG before the first PSTPIP codon
T1 sequence: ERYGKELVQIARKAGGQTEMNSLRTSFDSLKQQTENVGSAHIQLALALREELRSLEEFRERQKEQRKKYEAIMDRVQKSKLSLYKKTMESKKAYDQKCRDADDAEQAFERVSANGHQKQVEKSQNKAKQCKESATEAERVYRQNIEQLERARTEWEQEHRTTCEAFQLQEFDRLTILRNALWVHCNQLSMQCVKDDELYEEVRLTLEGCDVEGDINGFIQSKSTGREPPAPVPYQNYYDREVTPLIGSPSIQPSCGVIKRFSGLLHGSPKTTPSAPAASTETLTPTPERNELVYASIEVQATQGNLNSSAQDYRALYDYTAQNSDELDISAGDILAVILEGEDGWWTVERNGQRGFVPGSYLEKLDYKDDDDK

T2: PST PIP missing 75 amino acids from the N-terminus (delta 75), C-terminal FLAG (murine, UniProt P97814 76-415)
T2 construct: The 5' primer (N-coil.3, Ser76) carries ATGATG before the first PSTPIP codon
T2 sequence: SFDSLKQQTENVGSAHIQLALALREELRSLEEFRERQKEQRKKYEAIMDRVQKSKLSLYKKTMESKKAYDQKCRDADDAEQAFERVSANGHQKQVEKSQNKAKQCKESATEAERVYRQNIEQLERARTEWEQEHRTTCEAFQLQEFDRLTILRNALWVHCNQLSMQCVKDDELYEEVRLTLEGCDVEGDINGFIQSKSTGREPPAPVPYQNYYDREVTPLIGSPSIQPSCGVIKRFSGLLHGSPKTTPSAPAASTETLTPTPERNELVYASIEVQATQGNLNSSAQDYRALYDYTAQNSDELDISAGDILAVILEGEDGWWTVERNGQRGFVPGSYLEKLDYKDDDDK

T3: W232A mutant of PST PIP, C-terminal FLAG (murine, UniProt P97814 1-415)
T3 construct: In vitro translated or expressed in COS cells; also called W232A PST PIP; PST PIP with an alanine replacement mutation at tryptophan232
T3 sequence: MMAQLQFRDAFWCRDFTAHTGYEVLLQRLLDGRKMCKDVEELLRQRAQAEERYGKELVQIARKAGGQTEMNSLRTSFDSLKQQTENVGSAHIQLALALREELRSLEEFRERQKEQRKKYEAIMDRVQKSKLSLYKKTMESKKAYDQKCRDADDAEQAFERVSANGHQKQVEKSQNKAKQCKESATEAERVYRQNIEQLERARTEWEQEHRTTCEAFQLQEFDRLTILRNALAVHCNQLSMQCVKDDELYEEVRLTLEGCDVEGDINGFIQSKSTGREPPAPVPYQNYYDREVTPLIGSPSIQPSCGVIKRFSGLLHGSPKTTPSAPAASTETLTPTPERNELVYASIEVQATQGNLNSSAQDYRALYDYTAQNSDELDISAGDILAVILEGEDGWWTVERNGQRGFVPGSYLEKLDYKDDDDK

T4: double mutant of PTP HSCF with both R444 and W450 mutated to alanine, HA tagged (UniProt Q61152 1-453)
T4 construct: range 1-453; also called R+W; R444+W450
T4 sequence (looked up): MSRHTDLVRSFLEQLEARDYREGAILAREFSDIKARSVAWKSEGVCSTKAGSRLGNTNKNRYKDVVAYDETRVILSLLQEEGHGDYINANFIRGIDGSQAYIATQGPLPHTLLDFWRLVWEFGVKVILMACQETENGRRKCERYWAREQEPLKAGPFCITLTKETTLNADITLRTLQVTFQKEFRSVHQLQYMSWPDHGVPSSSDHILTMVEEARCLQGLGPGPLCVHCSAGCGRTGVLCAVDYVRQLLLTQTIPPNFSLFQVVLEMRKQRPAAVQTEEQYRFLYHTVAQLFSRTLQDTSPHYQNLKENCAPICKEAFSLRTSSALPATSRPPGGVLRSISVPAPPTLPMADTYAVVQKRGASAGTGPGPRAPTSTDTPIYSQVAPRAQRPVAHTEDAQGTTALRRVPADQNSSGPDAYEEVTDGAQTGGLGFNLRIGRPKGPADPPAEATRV


Experiments:
[1] = molecular target: T1, PST PIP missing 50 amino acids from the …; experiment: GST-PTP HSCF pulldown of in vitro translated PST PIP deletion mutant
Source text: (§1) FIG. 9. N Terminal Truncations Result in a Loss of PST PIP Binding to PTP HSCF. Full length PST PIP (Spencer et al., *J. Cell. Biol.*, 138(4):845–860 (1997)) and forms missing 25 (delta 25), 50 (delta 50) and 75 (delta 75) amino acids from the N-terminus were transcribed and translated in vitro. The upper panel illustrates immunoprecipitation of the proteins with an antibody directed against a PST PIP C-terminal FLAG epitope. The lower panel illustrates the same proteins precipitated with a GST fusion protein containing the C-terminal 149 amino acids of PTP HSCF (Cheng et al., *Oncogene* 13:2275–2279 (1996)) including the C-terminal proline rich binding site.
(§2) In vitro binding analyses between various PTP HSCF and PST PIP constructs were performed as previously described (Spencer et al, (1997), supra). Briefly, plasmids were transcribed and translated in vitro using the TnT Rabbit Reticulocyte Lysate System (Promega). Samples were diluted in 50 mM HEPES, pH 7.2, 1% triton X-100, 10% glycerol, 100 mM NaCl, and 2 µg/ml each of leupeptin, pepstatin, aprotinin and PMSF (lysis buffer). Samples were than reacted with GST fusion proteins at various concentrations, and the bound proteins were centrifuged using glutathione-sepharose beads and analyzed on SDS polyacrylamide gels. […]

[2] = molecular target: T2, PST PIP missing 75 amino acids from the …; experiment: as above
Source text: as §1, §2

[3] = molecular target: T3, W232A mutant of PST PIP, C-terminal FLAG; experiment: GST-PTP HSCF pulldown of in vitro translated PST PIP mutant
Procedure: as §2, with “gels. C-terminally-derived peptide inhibition studies were performed by incubating the GST fusion protein binding reactions in the presence of 10 µg/ml of the indicated peptides. Peptides were produced by FMOC-protected amino acids as previously described (Spencer et al, (1997), supra). In vivo interactions between various forms of PTP HSCF and PST PIP were also performed as previously described (Spencer et al, (1997), supra). Briefly, COS cells were transfected with various constructs, and after 48 hours, lysates were prepared and immunoprecipitated with antibodies to either the FLAG epitope contained at the C-terminus of PST PIP or an HA epitope contained at the N-terminus of PTP HSCF.” for “gels.”

[4] = molecular target: T4, double mutant of PTP HSCF with both …; experiment: anti-HA immunoprecipitation from co-transfected COS cells, blot with anti-PST PIP
Procedure: Multiple bands precipitated with the GST PST PIP fusion protein are apparently C-terminal proteolyzed products of the PTP. Also shown are GST PST PIP precipitations (10 μg/ml) performed on a double mutant of PTP HSCF (R+W) with both residues $R444$ and $W450$ mutated to alanine (bottom panel FIG. 14 A/2). B. COS cells were co-transfected with a 10:1 ratio of plasmids encoding hemagglutinin (HA) tagged PTP HSCF with the illustrated alanine substitutions or a mutant of PTP HSCF deleted for the C-terminal 24 amino acids (PTP $HSCFD24$) and wild type PST PIP with a C-terminal FLAG epitope tag, respectively. Transfected cell lysates were immunoprecipitated with anti-HA monoclonal antibodies and the precipitates were blotted with anti-PST PIP polyclonal antibody to detect the relative amounts of PST PIP complexed with either wild type or different mutant forms of PTP HSCF. […] Equal expression of PSTPIP was determined by immunoprecipitating lysates with anti-FLAG monoclonal antibody and blotting with anti-PST PIP polyclonal antibody.
In vitro binding analyses between various PTP HSCF and PST PIP constructs were performed as previously described (Spencer et al, (1997), supra). […] Samples were than reacted with GST fusion proteins at various concentrations, and the bound proteins were centrifuged using glutathione-sepharose beads and analyzed on SDS polyacrylamide gels. […]

| Binder | binding result [1] | binding result [2] | binding result [3] | binding result [4] |
| --- | --- | --- | --- | --- |
| GST-PST-rich+CTH PTP HSCF (GST fusion of PTP HSCF amino acids 304-453) (other, UniProt Q61152 304-453, looked up, range 304-453; the methods give amino acids 304-453; also called GST-PTP HSCF; GST PTP HSCF; not shown: glutathione S-transferase encoded by pGEX-4T-2 (Pharmacia)) QNLKENCAPICKEAFSLRTSSALPATSRPPGGVLRSISVPAPPTLPMADTYAVVQKRGASAGTGPGPRAPTSTDTPIYSQVAPRAQRPVAHTEDAQGTTALRRVPADQNSSGPDAYEEVTDGAQTGGLGFNLRIGRPKGPRDPPAEWTRV | no binding | no binding | no binding |  |
| full-length PSTPIP tagged with the FLAG epitope at the C-terminus (other, In vitro transcribed/translated in rabbit reticulocyte lysate, or expressed in COS cells) MMAQLQFRDAFWCRDFTAHTGYEVLLQRLLDGRKMCKDVEELLRQRAQAEERYGKELVQIARKAGGQTEMNSLRTSFDSLKQQTENVGSAHIQLALALREELRSLEEFRERQKEQRKKYEAIMDRVQKSKLSLYKKTMESKKAYDQKCRDADDAEQAFERVSANGHQKQVEKSQNKAKQCKESATEAERVYRQNIEQLERARTEWEQEHRTTCEAFQLQEFDRLTILRNALWVHCNQLSMQCVKDDELYEEVRLTLEGCDVEGDINGFIQSKSTGREPPAPVPYQNYYDREVTPLIGSPSIQPSCGVIKRFSGLLHGSPKTTPSAPAASTETLTPTPERNELVYASIEVQATQGNLNSSAQDYRALYDYTAQNSDELDISAGDILAVILEGEDGWWTVERNGQRGFVPGSYLEKLDYKDDDDK |  |  |  | no binding |
